Source: patent US20240182536A1 (MURAL ONCOLOGY, published 2024)
Substitutions are numbered along the chain they refer to. Names and notes keep the numbering of the source. Where two headings read alike, the source gives them in different places.

T1: human IL-18 binding protein (IL-18BP) (human, UniProt O95998 31-194)
T1 construct: also called hu IL-18BP; hIL18BP
T1 sequence (looked up): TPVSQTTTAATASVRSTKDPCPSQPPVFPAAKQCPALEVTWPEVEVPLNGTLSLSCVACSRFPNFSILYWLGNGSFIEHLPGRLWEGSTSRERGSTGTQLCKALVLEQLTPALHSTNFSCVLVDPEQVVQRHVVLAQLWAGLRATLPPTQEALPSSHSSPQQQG

T2: IL-18 receptors on HEK-Blue IL-18 reporter cells (InvivoGen) (UniProt Q13478 19-541; O95256 20-599)
T2 sequence (looked up) 1: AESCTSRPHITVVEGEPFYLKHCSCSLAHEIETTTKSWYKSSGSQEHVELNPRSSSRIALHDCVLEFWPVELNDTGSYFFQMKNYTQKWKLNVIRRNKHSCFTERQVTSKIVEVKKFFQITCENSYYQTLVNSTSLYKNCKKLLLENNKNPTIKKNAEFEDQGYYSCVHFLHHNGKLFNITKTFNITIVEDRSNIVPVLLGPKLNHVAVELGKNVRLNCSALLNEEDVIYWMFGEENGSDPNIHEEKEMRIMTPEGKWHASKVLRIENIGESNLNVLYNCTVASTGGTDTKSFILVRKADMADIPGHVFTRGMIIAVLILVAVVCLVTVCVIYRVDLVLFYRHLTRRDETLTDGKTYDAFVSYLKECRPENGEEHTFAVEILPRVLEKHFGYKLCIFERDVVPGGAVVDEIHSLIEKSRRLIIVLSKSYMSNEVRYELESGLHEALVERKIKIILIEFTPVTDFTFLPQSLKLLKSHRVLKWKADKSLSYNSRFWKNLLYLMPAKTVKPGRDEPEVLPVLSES
T2 sequence (looked up) 2: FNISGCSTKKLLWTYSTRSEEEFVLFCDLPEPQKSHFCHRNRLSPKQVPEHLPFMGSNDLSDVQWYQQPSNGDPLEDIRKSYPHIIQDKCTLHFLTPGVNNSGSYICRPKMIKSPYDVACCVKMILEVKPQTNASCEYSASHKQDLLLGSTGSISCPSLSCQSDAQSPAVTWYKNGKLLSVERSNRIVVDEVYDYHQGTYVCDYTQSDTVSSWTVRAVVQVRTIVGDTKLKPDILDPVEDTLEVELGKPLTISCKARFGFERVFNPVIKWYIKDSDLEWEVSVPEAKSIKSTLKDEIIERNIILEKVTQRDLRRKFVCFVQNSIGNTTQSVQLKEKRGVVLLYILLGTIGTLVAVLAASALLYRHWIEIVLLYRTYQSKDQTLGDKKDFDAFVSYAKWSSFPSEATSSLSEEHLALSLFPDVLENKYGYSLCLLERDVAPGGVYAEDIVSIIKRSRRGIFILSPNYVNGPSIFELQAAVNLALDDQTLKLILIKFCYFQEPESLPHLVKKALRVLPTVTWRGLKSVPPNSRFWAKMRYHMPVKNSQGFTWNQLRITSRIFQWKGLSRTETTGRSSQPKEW

T3: IL-18 receptors on HEK-Blue IL-18 reporter cells (UniProt Q13478 19-541; O95256 20-599, limits assumed)
T3 sequence (looked up) 1: T2 sequence (looked up) 1
T3 sequence (looked up) 2: T2 sequence (looked up) 2

T4: human IL-18 binding protein (human, UniProt O95998 31-194)
T4 sequence (looked up): T1 sequence (looked up)

T5: IL-18 receptor alpha (UniProt Q13478 19-329, limits assumed)
T5 construct: also called IL-18 Rα; IL-18Rα
T5 sequence (looked up): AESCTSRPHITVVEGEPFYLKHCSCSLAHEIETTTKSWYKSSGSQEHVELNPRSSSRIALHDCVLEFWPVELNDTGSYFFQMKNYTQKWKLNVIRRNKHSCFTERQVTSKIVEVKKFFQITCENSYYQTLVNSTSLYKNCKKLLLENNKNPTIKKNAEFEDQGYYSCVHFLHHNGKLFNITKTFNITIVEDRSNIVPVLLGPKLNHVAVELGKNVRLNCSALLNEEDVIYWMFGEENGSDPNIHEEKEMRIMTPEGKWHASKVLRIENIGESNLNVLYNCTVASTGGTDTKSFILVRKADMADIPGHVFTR

B1: IL-18 variant G3A, N91L, K53S (ligand)
chain: YFAKLESKLSVIRNLNDQVLFIDQGNRPLFEDMTDSDMRDNAPRTIFIISMYSDSQPRGMAVTISVKSEKISTLSSENKIISFKEMNPPDLIKDTKSDIIFFQRSVPGHDNKMQFESSSYEGYFLASEKERDLFKLILKKEDELGDRSIMFTVQNED
B2: human IL-18 variant G3V/M60K (ligand)
chain: B1 chain with A3V, S53K, M60K, L91N
B3: human IL-18 variant G3V/E6K/K53A (ligand)
chain: B1 chain with A3V, E6K, S53A, L91N
B4: IL-18 variant G3R, N91M, K53A (ligand)
chain: B1 chain with A3R, S53A, L91M
notes: also called G3R/K53A/N91M
B5: IL-18 variant G3R, N91A, K53S (ligand)
chain: B1 chain with A3R, L91A
notes: also called G3R/K53S/N91A
B6: IL-18 variant G3R, N91S, K53A (ligand)
chain: B1 chain with A3R, S53A, L91S
B7: IL-18 variant G3K, N91I, K53S (ligand)
chain: B1 chain with A3K, L91I
B8: IL-18 variant G3F, N91E, K53S (ligand)
chain: B1 chain with A3F, L91E
notes: also called G3F/K53S/N91E
B9: Comparator 1 (ligand)
chain: YFGKLESKLSVIRNLNDQVLFIDQGNRPLFEDMTDSDCRDNAPRTIFIISKYSDSLARGLAVTISVKCEKISTLSCENKIISFKEMNPPDNIKDTKSDIIFFQRDVPGHSRKMQFESSSYEGYFLACEKERDLFKLILKKEDELGDRSIMFTVQNED
notes: Human IL-18 variant M51K, K53S, Q56L, P57A, M60L, S105D, D110S, N111R; also called IL-18 Comparator 1
B10: human IL-18 variant G3T/E6K/K53A/M60K (ligand)
chain: B1 chain with A3T, E6K, S53A, M60K, L91N
B11: human IL-18 variant G3V/E6K/K53A/M60K (ligand)
chain: B1 chain with A3V, E6K, S53A, M60K, L91N
B12: human IL-18 variant G3T/E6K/K53S/M60K (ligand)
chain: B1 chain with A3T, E6K, M60K, L91N
B13: human IL-18 variant G3V/K53A/M60K (ligand)
chain: B1 chain with A3V, S53A, M60K, L91N
B14: human IL-18 variant G3V/E6K/K53S/M60K (ligand)
chain: B1 chain with A3V, E6K, M60K, L91N
B15: human IL-18 variant G3T/K53A/M60K (ligand)
chain: B1 chain with A3T, S53A, M60K, L91N
B16: human IL-18 variant G3V/K53S/M60K (ligand)
chain: B1 chain with A3V, M60K, L91N
B17: human IL-18 variant G3T/K53S/M60K (ligand)
chain: B1 chain with A3T, M60K, L91N

Experiments:
[1] = target: T1, human IL-18 binding protein (IL-18BP); assay: Octet BLI
Experimental: (§1) Octet 96red instrument was used to determine affinities of IL18 proteins to BP or receptors. 5-10 ug/ml analyte proteins were used for loading on Sartorius tips (AHC or SA). […] 120-180 s loading, 200 s association and 800 s dissociation were used for kinetics. 3-7 data points were used to calculate affinities.
Select G3/K53-substitution containing IL-18 variants and select G3/K53/N91-substitution containing TL-18 variants were tested for activity in the HEK-blue activity assay and for binding affinity to IL-18BP. As shown in the data of Table 15 and Table 16 below, each variant had similar or better activity than WT IL-18, and retained substantial activity in the presence of IL-18BP.

[2] = target: T2, IL-18 receptors on HEK-Blue IL-18 …; assay: cell-based or functional assay
[3] = target: T1, human IL-18 binding protein (IL-18BP); assay: cell-based or functional assay
[4] = target: T3, IL-18 receptors on HEK-Blue IL-18 …; assay: cell-based or functional assay
[5] = target: T4, human IL-18 binding protein; assay: cell-based or functional assay
[6] = target: T3, IL-18 receptors on HEK-Blue IL-18 …; assay: cell-based or functional assay; remark: listed apart in the source
[7] = target: T4, human IL-18 binding protein; assay: cell-based or functional assay; remark: listed apart in the source
IL-18 receptor alpha = target: T5, IL-18 receptor alpha; assay: Octet BLI
Experimental: as §1
Additional IL-18 variants were generated and tested based on the results above with G3 variants, E6 variants, K53 variants, and M60 variants. The new variants were first tested for binding to IL-18Rα and IL-18BP by octet, as described above.

Binder	Kd [1]	koff [1]	kon [1]	HEK-Blue Ec50 (pM), -IL-18BP [2]	HEK-Blue Ec50 (pM), +IL-18BP (50 nM) [3]	HEK-blue EC50 (pM) - BP [4]	HEK-blue EC50 (pM) + 1000 nM BP [5]	HEK-blue EC50 (pM) - BP [6]	HEK-blue EC50 (pM) + 300 nM BP [7]	Kd (IL-18 receptor alpha)
B1	4.8 nM	0.00103 s⁻¹	216000 M⁻¹ s⁻¹	0.71 pM	5.82 pM					
B2						1.43 pM	1.05 pM	0.042 pM	0.507 pM	
B3						0.05 pM	1.26 pM	0.038 pM	1.68 pM	
B4	1.5 nM	0.00031 s⁻¹	208000 M⁻¹ s⁻¹	0.06 pM	1.67 pM					
B5	3.4 nM	0.000728 s⁻¹	213000 M⁻¹ s⁻¹	0.25 pM	2.27 pM					
B6	0.9 nM	0.000162 s⁻¹	191000 M⁻¹ s⁻¹	0.05 pM	2.8 pM					
B7	1.9 nM	0.000406 s⁻¹	218000 M⁻¹ s⁻¹	0.2 pM	7.05 pM					
B8	9.1 nM	0.00195 s⁻¹	213000 M⁻¹ s⁻¹	2.55 pM	10.7 pM					
B9										16 nM
B10						0.054 pM	0.065 pM	0.061 pM	0.062 pM	222 nM
B11						0.031 pM	0.028 pM	0.026 pM	0.033 pM	82 nM
B12						0.252 pM	0.231 pM	0.33 pM	0.308 pM	536 nM
B13						0.086 pM	0.075 pM	0.041 pM	0.063 pM	488 nM
B14						0.089 pM	0.095 pM	0.079 pM	0.098 pM	324 nM
B15						1.88 pM	1.31 pM	0.843 pM	1.01 pM	2260 nM
B16						0.021 pM	2.61 pM	2.11 pM	2.18 pM	5310 nM
B17						5.53 pM	4.1 pM	4.26 pM	4.99 pM	5050 nM
